± gives the standard deviation of the averaged measurements.
What was measured:
Saccharomyces cerevisiae [1] = assay: protein stability index of tFT-peptide fusion (C-terminal peptide) (PSI (0-1 scale)); higher = more stable (slower turnover)
Description: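 MPS profiling in S. cerevisiae of the tFT-X12 degron library: putative degron peptides plus stable controls, 12 aa, fused to the C-terminus of a sfGFP-mCherry timer. Cells are FACS-sorted into 8 mCherry/sfGFP bins and deep-sequenced. PSI runs from 0 (unstable) to 1 (stable). Backgrounds are wild type, das1Δ and doa10Δ at 30 °C, and wild type, das1Δ, cdc34-1 and cdc53-1 at 37 °C; 2-3 technical replicates each.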

Saccharomyces cerevisiae [2] = assay: as above; details: genetic background: wild type; temperature: 30 C
[3] = genetic background: cdc34-1, temperature: 37 C
[4] = genetic background: cdc53-1, temperature: 37 C
[5] = genetic background: das1 deletion, temperature: 30 C
[6] = genetic background: das1 deletion, temperature: 37 C
[7] = genetic background: doa10 deletion, temperature: 30 C
[8] = genetic background: wild type, temperature: 30 C
[9] = genetic background: wild type, temperature: 37 C
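Further: PSI is a weighted mean of sequencing reads over stability bins, variants kept only with over 10 reads, mCherry proximal and sfGFP distal, peptide attached via GGGS linker.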

Sequence	protein stability index (Saccharomyces cerevisiae [1]; [3])	protein stability index (Saccharomyces cerevisiae [1]; [4])	protein stability index (Saccharomyces cerevisiae [1]; [5])	protein stability index (Saccharomyces cerevisiae [1]; [6])	protein stability index (Saccharomyces cerevisiae [1]; [7])	protein stability index (Saccharomyces cerevisiae [1]; [8])	protein stability index (Saccharomyces cerevisiae [1]; [9])	protein stability index (Saccharomyces cerevisiae [2])
PRFCVYARFHNT	0.713 ± 0.016	0.748 ± 0.01	0.649 ± 0.036	0.722 ± 0.054	0.298 ± 0.023	0.375 ± 0.033	0.567 ± 0.02	0.387 ± 0.022
PRFWFYLSYSVH	0.429 ± 0.044	0.514 ± 0.012	0.373 ± 0.044	0.533 ± 0.015	0.3014 ± 0.0016	0.344 ± 0.02	0.493 ± 0.01	0.431 ± 0.032
PSPPPPLPPHPS	0.688 ± 0.039	0.7321 ± 0.0069	0.69 ± 0.031	0.72 ± 0.01	0.685 ± 0.019	0.667 ± 0.013	0.716 ± 0.032	0.721 ± 0.025
PSPPPPRPASPS	0.7 ± 0.052	0.7492 ± 0.0073	0.651 ± 0.0084	0.72829 ± 0.00037	0.667 ± 0.048	0.652 ± 0.015	0.719 ± 0.0084	0.439 ± 0.023
PSTLVITVVITK	0.247 ± 0.019	0.29 ± 0.0099	0.279 ± 0.029	0.4255 ± 0.0021	0.23 ± 0.023	0.243 ± 0.03	0.389 ± 0.02	0.37 ± 0.038
PYHAPRPPFSLF	0.511 ± 0.05	0.68 ± 0.0087	0.667 ± 0.021	0.7543 ± 0.0025	0.0708 ± 0.013	0.0545 ± 0.017	0.111 ± 0.04	0.149 ± 0.0084
QARQLEMYMVVF	0.638 ± 0.066	0.532 ± 0.12	0.403 ± 0.041	0.579 ± 0.02	0.379 ± 0.015	0.418 ± 0.013	0.544 ± 0.0069	0.432 ± 0.0045
QCKHIVRKIKLH	0.426 ± 0.089	0.61 ± 0.11	0.617 ± 0.014	0.737 ± 0.018	0.117 ± 0.016	0.0952 ± 0.034	0.147 ± 0.014	0.186 ± 0.025
QDFFYCLLVATS	0.155 ± 0.0058	0.276 ± 0.015	0.21 ± 0.038	0.3605 ± 0.003	0.174 ± 0.0022	0.205 ± 0.03	0.305 ± 0.0038	0.317 ± 0.029
QGILVGCCYVLC	0.426 ± 0.024	0.4409 ± 0.00073	0.313 ± 0.021	0.5035 ± 0.00077	0.2731 ± 0.0018	0.3 ± 0.023	0.4657 ± 0.0015	0.386 ± 0.022
QLGGKVGNCHVV	0.683 ± 0.046	0.7507 ± 0.0047	0.6644 ± 0.0051	0.732 ± 0.025	0.668 ± 0.05	0.652 ± 0.009	0.715 ± 0.034	0.75 ± 0.021
QVGRPRVGFSRR	0.704 ± 0.035	0.7483 ± 1.4e-05	0.652 ± 0.0075	0.75 ± 0.016	0.657 ± 0.016	0.66 ± 0.02	0.7302 ± 0.0063	0.764 ± 0.014
RAFFLLYCTLWA	0.0997 ± 0.0085	0.204 ± 0.039	0.163 ± 0.027	0.266 ± 0.012	0.132 ± 0.016	0.161 ± 0.025	0.24 ± 0.0077	0.206 ± 0.04
RALYLLALVGVS	0.234 ± 0.0075	0.254 ± 0.02	0.223 ± 0.034	0.371 ± 0.0042	0.169 ± 0.0096	0.214 ± 0.024	0.3484 ± 0.0029	0.362 ± 0.11
RARFMLGVLLST	0.5525 ± 0.0044	0.617 ± 0.033	0.487 ± 0.028	0.5834 ± 0.0054	0.314 ± 0.0056	0.352 ± 0.024	0.49366 ± 3e-05	0.451 ± 0.021
RARLRFASLRAF	0.546 ± 0.015	0.629 ± 0.079	0.64 ± 0.13	0.644 ± 0.029	0.144 ± 0.012	0.122 ± 0.008	0.217 ± 0.018	0.176 ± 0.01
RDRHFKIQTCIM	0.662 ± 0.016	0.721 ± 0.017	0.648 ± 0.02	0.717 ± 0.014	0.24 ± 0.017	0.246 ± 0.039	0.515 ± 0.035	0.388 ± 0.0046
RFCLLFVVAGGV	0.516 ± 0.0057	0.527 ± 0.024	0.343 ± 0.019	0.546 ± 0.0069	0.35 ± 0.035	0.371 ± 0.018	0.516 ± 0.015	0.457 ± 0.017
RFFFFFPCLLAP	0.349 ± 0.011	0.3411 ± 0.001	0.417 ± 0.019	0.525 ± 0.026	0.519 ± 0.025	0.418 ± 0.029	0.486 ± 0.006	0.457 ± 0.048

Source: the supplement of paper PMC10724198
